Data published in US11466067B2 (priority 2019, dated 2022).

Assays:
[1] = system: DSS-induced colitis; assay type: in vivo, C57BL6/J mice
[2] = system: colonic markers; assay: Colonic sigmoidoscopy spray in NHP: inflammatory and tissue repair markers; assay type: in vivo, Macaca fascicularis; conditions: 1, 3, 10 mg
Experimental: To assess the effect of an IL-10 delivery construct on pro-inflammatory and anti-inflammatory markers the IL-10 delivery construct was delivered to male Macaca fascicularis monkeys (about 5 to about 8 kg) by colonic sigmoidoscopy with a spray nozzle. The IL-10 delivery construct was administered at doses of 1 mg, 3 mg, and 10 mg formulated in albumin.

B1: IL-10 delivery construct: recombinant homodimeric fusion protein: N-terminal methionine, cholix386 domain, polyGlySer spacer, recombinant human IL-10 (protein)
chain: MVEEALNIFDECRSPCSLTPEPGKPIQSKLSIPSDVVLDEGVLYYSMTINDEQNDIKDEDKGESIITIGEFATVRATRHYVNQDAPFGVIHLDITTENGTKTYSYNRKEGEFAINWLVPIGEDSPASIKISVDELDQQRNIIEVPKLYSIDLDNQTLEQWKTQGNVSFSVTRPEHNIAISWPSVSYKAAQKEGSRHKRWAHWHTGLALCWLVPMDAIYNYITQQNCTLGDNWFGGSYETVAGTPKVITVKQGIEQKPVEQRIHFSKGNAMSALAAHRVCGVPLETLARSRKPRDLTDDLSCAYQAQNIVSLFVATRILFSHLDSVFTLNLDEQEPEVAERLSDLRRINENNPGMVTQVLTVARQIYNDYVTHHPGLTPEQTSAGAQAGGGGSGGGGSGGGGSPGQGTQSENSCTHFPGNLPNMLRDLRDAFSRVKTFFQMKDQLDNLLLKESLLEDFKGYLGCQALSEMIQFYLEEVMPQAENQDPDIKAHVNSLGENLKTLRLRLRRCHRFLPCENKSKAVEQVKNAFNKLQEKGIYKAMSEFDIFINYIEAYMTMKIRN
modifications: homodimer
B1 was tested. Which “edema width, mid colon” value ([1]; 30 mg/kg) did it give?
Its value is “significantly improved”.

What about the “hyperplasia, mid colon” value ([1]; 30 mg/kg) of the same molecule?
The value was “significantly improved”.

What about the “mucosal thickness, mid colon” value ([1]; 30 mg/kg) of the same molecule?
Its value is “significantly improved”.

And the “colon length vs vehicle” value ([1]; 10 and 30 mg/kg, p<0.05)?
Its value is “Significant improvement”.

What about the “DSS-induced body weight loss” value ([1]; construct 30 mg/kg, CsA 75 mg/kg, oral q.d.) of the same molecule?
Its value is “significantly reduced DSS-induced weight loss”.

What about the “expression of anti-inflammatory markers” value [2] of the same molecule?
Its value is “increased expression”.

What about the “expression of pro-inflammatory markers” value [2] of the same molecule?
The value was “decreased expression”.

And the “expression of tissue repair and wound healing biomarkers” value [2]?
The value was “increased expression”.
